This note sets out measurements from paper PMC7807754, “A novel protein encoded by circular SMO RNA is essential for Hedgehog signaling activation and glioblastoma tumorigenicity” (Genome Biology, 2021).

The test concerns the target T1, 6xHis-SMO (human, UniProt Q99835 28-787).
T1 construct: smoothened (SMO), human; The plasmid for the 6xHis-tagged protein is not described; source: 293T, transfected, purified (HisPur Ni-NTA Purification Kit)
In words: co-IP; in vitro IP with proteins purified from 293T: GFP or GFP-193a.a. incubated with 6xHis-SMO for 4 h at 4 °C, immunoprecipitation overnight at 4 °C, protein A/G agarose, washed with PBST 5 times, western blotting. As to conditions: both partners purified. In general terms: In western blotting, separated proteins are transferred to a membrane and probed.

T1 sequence (Q99835 28-787): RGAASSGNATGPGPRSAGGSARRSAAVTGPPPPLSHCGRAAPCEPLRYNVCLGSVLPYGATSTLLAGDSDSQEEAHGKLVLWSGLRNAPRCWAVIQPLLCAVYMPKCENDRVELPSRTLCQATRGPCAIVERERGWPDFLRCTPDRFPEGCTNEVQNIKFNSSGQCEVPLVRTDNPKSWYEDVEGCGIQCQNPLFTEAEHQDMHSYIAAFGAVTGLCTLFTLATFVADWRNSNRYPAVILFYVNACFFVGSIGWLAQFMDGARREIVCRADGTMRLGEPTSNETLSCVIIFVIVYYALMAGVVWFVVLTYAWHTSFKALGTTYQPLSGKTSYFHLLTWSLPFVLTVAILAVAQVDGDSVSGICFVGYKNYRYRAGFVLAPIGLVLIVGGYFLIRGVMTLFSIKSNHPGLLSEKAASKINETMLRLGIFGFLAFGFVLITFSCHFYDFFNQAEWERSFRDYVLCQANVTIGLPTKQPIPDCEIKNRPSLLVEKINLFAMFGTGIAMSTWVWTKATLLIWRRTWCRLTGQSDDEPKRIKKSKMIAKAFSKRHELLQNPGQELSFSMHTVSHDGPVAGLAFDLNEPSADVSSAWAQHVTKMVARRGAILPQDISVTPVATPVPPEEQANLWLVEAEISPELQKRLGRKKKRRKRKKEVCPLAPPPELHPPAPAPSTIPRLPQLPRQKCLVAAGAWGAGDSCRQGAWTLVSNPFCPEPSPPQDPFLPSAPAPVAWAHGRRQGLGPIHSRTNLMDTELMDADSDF

B1: GFP-SMO-193a.a. (natural protein, human)
chain: MHSYIAAFGAVTGLCTLFTLATFVADWRNSNRYPAVILFYVNACFFVGSIGWLAQFMDGARREIVCRADGTMRLGEPTSNETLSCVIIFVIVYYALMAGVVWFVVLTYAWHTSFKALGTTYQPLSGKTSYFHLLTWSLPFVLTVAILAVAQVDGDSVSGICFVGYKNYRYRAGFVLAPIGLVLIVGGYFLIRE
notes: SMO (smoothened), human, amino acids 230-421; the open reading frame of circ-SMO; extra Glu at the C-terminal, not part of linear SMO; The plasmid for the GFP-tagged protein is not described; source: 293T, transfected, purified (anti-GFP antibody, Catch and Release v2.0 Reversible Immunoprecipitation System)
Regarding B1, the binding result is “binds”.
